# In publication PMC8666670, “Malonyl-acyl carrier protein decarboxylase activity promotes fatty acid and cell envelope biosynthesis in Proteobacteria” (The Journal of Biological Chemistry, 2021):
# Substrate: CC(=O)SCCNC(=O)CCNC(=O)[C@H](O)C(C)(C)COP(=O)(O)OP(=O)(O)OC[C@H]1O[C@@H](n2cnc3c(N)ncnc32)[C@H](O)[C@@H]1OP(=O)(O)O
# Experiment: radiochemical TLC acetyltransferase assay, one-site Hill fit
# Format: biochemical, Escherichia coli
# Conditions: 500 μM glucosamine-1-phosphate, 20 mM MgCl2, 37 °C, labelled compound
protein,measurement,value
"GlmU (Escherichia coli K-12) (protein, full-length in pET28a, His-tag kept; expressed in E. coli BL21(DE3)) MLNNAMSVVILAAGKGTRMYSDLPKVLHTLAGKAMVQHVIDAANELGAAHVHLVYGHGGDLLKQALKDDNLNWVLQAEQLGTGHAMQQAAPFFADDEDILMLYGDVPLISVETLQRLRDAKPQGGIGLLTVKLDDPTGYGRITRENGKVTGIVEHKDATDEQRQIQEINTGILIANGADMKRWLAKLTNNNAQGEYYITDIIALAYQEGREIVAVHPQRLSEVEGVNNRLQLSRLERVYQSEQAEKLLLAGVMLRDPARFDLRGTLTHGRDVEIDTNVIIEGNVTLGHRVKIGTGCVIKNSVIGDDCEISPYTVVEDANLAAACTIGPFARLRPGAELLEGAHVGNFVEMKKARLGKGSKAGHLTYLGDAEIGDNVNIGAGTITCNYDGANKFKTIIGDDVFVGSDTQLVAPVTVGKGATIAAGTTVTRNVGENALAISRVPQTQKEGWRRPVKKK",Km,400 µM
